Data published in the nanobody polyreactivity screen of Harvey et al. (2022).

Assay: yeast display, Sf9 membrane polyspecificity reagent, FACS + sequencing; frameworks hold sequencing errors
Outline: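 A nanobody's polyreactivity label depends on the gate it was sorted from. Yeast display cells were stained with 10% biotinylated, detergent-solubilized Sf9 membrane reagent for 1 hour at 4 °C, enriched on streptavidin microbeads and sorted by FACS. The low and high (top ~1%) gates were set on anti-HA fluorescence for expression and streptavidin fluorescence for reagent binding.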

Row | Sequence | polyreactivity (PSR sort gate)
1 | QVQLVESGGGLVQAGGSLRLSCAASGRIFKRNVMGWYRQAPGKERELVAAIRYSGGNTYYADSVKGRFTISRDNAKNTVYLQMNSLKPEDTAVYYCAAQQWSYTQSRLYDMGYWGQGTQVTVSS | high polyreactivity
2 | QVQLVESGGGLVQAGGSLRLSCAASGRIFKRYTMGWYRQAPGKERELVAGITFSGGSTYYADSVKGRFTISRDNAKNTVYLQMHSLKPEDTAVYDCNARVPPQGWGPWKAFDYWGQGTQVTVSS | low polyreactivity
3 | QVQLVESGGGLVQAGGSLRLSCAASGRIFKSYTMGWYRQAPGKERALVAGITWSGGSTYYADSVKGRFTISRDNAKNTVYLQMNSLKPDDTAVYYCATKTFYNYGFWGQGTQVTVSS | high polyreactivity
4 | QVQLVESGGGLVQAGGSLRLSCAASGRIFKSYVMGWYRQATGKERELVAAITRTGGSTYYADSVKGRFTISRDNAKNTVYLQMNSLKPVDTAVYYCNARYSWPRATWYDYWGQGTQVTVSS | high polyreactivity
5 | QVQLVESGGGLVQAGGSLRLSCAASGRIFKTYAMGWYRQAPGKERELDAAITASGGRTYYADSVKGRFTISRDNAKNTVYLQMNSLKPEDTAVYYCAADSGNEYDYWGQGTQVTVSS | high polyreactivity
6 | QVQLVESGGGLVQAGGSLRLSCAASGRIFKTYAMGWYRQAPGKERELVAAITASGGRTYYADSVKGRFTISRDNAKNTVYLQMNSLTPEDSAVYYCAAPLLRDLRSPYSYNYWGQGTQVTVSS | low polyreactivity
7 | QVQLVESGGGLVQAGGSLRLSCAASGRIFKVYAMGWSRQAPGKERELVAAITSGGSTNYADSVKGRFTISRDNAKTTVYLQMNSRKPEDTAVYYCAVVSGRWSAVQYDYWGQGTQVTVSS | high polyreactivity
8 | QVQLVESGGGLVQAGGSLRLSCAASGRIFKVYAMGWYRQAHGKEREMVAAITSRGGSTYYADSVKGRFTISRDNSKNTVYLQMNSLKPEDTAVYYCAAARGLPSNKYYYWGQGTQVTVSS | high polyreactivity
9 | QVQLVESGGGLVQAGGSLRLSCAASGRIFKVYAMGWYRQAPGKERELVATISRGGSTYYADSVKGRFTISRDNAKNTVYLQMNSLKPEDTAVYYCATQRERYYWFGAWSYDYWGQGTQVTVSS | low polyreactivity
10 | QVQLVESGGGLVQAGGSLRLSCAASGRIFKWYAMGWYRQAPGKERELVAAISRSGGTTYYADSVKGRFTISSDNAKNTDYLQMNSLKPEDTAVYYCATRNIYFSTVDYWGQGTQVTVSS | high polyreactivity
11 | QVQLVESGGGLVQAGGSLRLSCAASGRIFKYNAMGWYRQAPGKERELVAAISGGGSTNYADSVKGRFTISRDNAKNTVYLQMNSLKPEDTAVYYCAKGYRRVYGPFYYWGQGTQVTVSS | low polyreactivity
12 | QVQLVESGGGLVQAGGSLRLSCAASGRIFKYYAMGWYRQAPGKERELVAAITRNGGITYYADSVKGRFTISRDNAKNTVYLQMNSLKPEDTAVYYCAAGQRGRYSISSDEYNYWGQGTQVTVSS | high polyreactivity
13 | QVQLVESGGGLVQAGGSLRLSCAASGRIFKYYAMGWYRQAPGKERELVARISRSSGNTYYADSVKGRFTISRDNAKNTVYLQMNSLKPEDTAVYYCATVPHYNGFNYWGQGTQVTVSS | high polyreactivity
14 | QVQLVESGGGLVQAGGSLRLSCAASGRIFKYYAMGWYRQAPGKERELVARISSGGGRTYYADSVKGRFTISRDNAKNTVYLQMNSLKPEDTAVYYCAADPPASYHTWYGYWGQGTQVTVSS | high polyreactivity
15 | QVQLVESGGGLVQAGGSLRLSCAASGRIFKYYAMGWYRQAPGKERELVSTISRGGGSTFYADSVKGRFTISRDNAKNTVYLQMNSLKPEDTAVYYCAVDVTFKRWYSTASSTHDYWGQGTQVTVSS | high polyreactivity
16 | QVQLVESGGGLVQAGGSLRLSCAASGRIFKYYVMGWYRQAPGKERELVATISSGSGTNYADSVKGRFTISRDNAKNTVYLQMNSLKPEDTAVYYCAARWTPRVRGYNYWGQGTLVTVSS | high polyreactivity
17 | QVQLVESGGGLVQAGGSLRLSCAASGRIFLFYDMGWYRQAPGKERELVATISFRGGSTYYADSVKGRFTISRDNAKNTVYLQMNSLKPEDTAVYYCAKQNKRGYSTSAYYYWGQGTQVTVSS | low polyreactivity
18 | QVQLVESGGGLVQAGGSLRLSCAASGRIFLGHDMGWYRQAPGKERELVATISSSGDSTYYADSVKGRFTISRDNAKNTVYLQMNSLKPEDTAVYYCAVKSTDVPVRGSPYDYWGQGTQVTVSS | low polyreactivity
19 | QVQLVESGGGLVQAGGSLRLSCAASGRIFLGYAMGWYRQAPGKEREFVAAITSSGGSTYYADSVKGRFTISRDNAKNTVYLLMNSLKPEDTAVYYCAARVTKLRTSSLRGYWGQGTQVTVSS | high polyreactivity
20 | QVQLVESGGGLVQAGGSLRLSCAASGRIFLRYTMGWYRQAPGKERELVAAISARTTGTYYADSVKGRFTISRDNAKNTVYLQMNSLKPEDTAVYYCAAKSKLSRDLFSWGQGTQVTVSS | low polyreactivity
21 | QVQLVESGGGLVQAGGSLRLSCAASGRIFLSYAMGWYRQAPGKEREFVAAITSSGGSTSYADSVKGRFTISRDNAKNTVYLQMNSLKPEDTAVYYCNARAYIFGQLKYDYWGQGTQVTVAS | low polyreactivity
22 | QVQLVESGGGLVQAGGSLRLSCAASGRIFLTNAMGSYRQAPGKERELVAAIRFSGGRTYYADSVKGRFTISRDNAKNTVYLQMNSLKPEDNAVYYCAADPPRTRYRNARFDYWGQGTQVTVSS | high polyreactivity

Row | Sequence | polyreactivity (PSR sort gate)
23 | QVQLVESGGGLVQAGGSLRLSCAASGRIFLTNTMGWYRQAPGKERELVAGISRGGRTYDADSVKGRFTISRDNAKNTVYLLKNSLKPEDTAVYYCAGRHRTPIYPYKRDYWGQGTQVSVSS | high polyreactivity
24 | QVQLVESGGGLVQAGGSLRLSCAASGRIFLVNAMGWYRQAPGKEREFVAAITDNPGSTYYADSVKGRFTISRDNAKNTVYLQMNSLKPEDTAVYYCAKQRGNKRIGYDSWGQGTQVTVSS | low polyreactivity
25 | QVQLVESGGGLVQAGGSLRLSCAASGRIFLYYAMGWYRQAPGKERELVAASTYTDGSTYYADSVKGRFTISRDNAKNTVYLQMNSLKPEDTAVYYCAAEFYYYDYWGQGTQVTVSS | low polyreactivity
26 | QVQLVESGGGLVQAGGSLRLSCAASGRIFLYYTMGWYRQAPGKERELDAAITRSGGSTYYADSVKGRFTISRDNAKNTDYLQMNSLKPEDTAVYYCNRAYVRYVPMNYWGQGTQVTVSS | high polyreactivity
27 | QVQLVESGGGLVQAGGSLRLSCAASGRIFNAYAIGWYRQAPGKERELVAAITVSGTRTYYADSVKGRFTISRDNAKNTVYLQMNSLKPEDTAVYYCAADIYHQPRYKYYYWGQGTQVTVSS | high polyreactivity
28 | QVQLVESGGGLVQAGGSLRLSCAASGRIFNDYAMGWYRQAPGKERELVATYADSVKGRFTISRDNAKNTVYLQMNSLKPEDTAVYYCAADFPSFPDFRPEYDYWGQGTQVTVSS | low polyreactivity
29 | QVQLVESGGGLVQAGGSLRLSCAASGRIFNENAMGWYRQAPGKERELVAAISRRGGTTYYADSVKGRFTISRDNAKNTVYLQMNSLIPEDTAVYYCNARYSKKGESQREYDYWGQGTQVTVSS | low polyreactivity
30 | QVQLVESGGGLVQAGGSLRLSCAASGRIFNGYTMGWYRQAPGKEREFVATISRSGGSTYYADSVKGRFTISRDNAKNTVYLQMNSLKPEDTAVYYCAKTYPAKWEYDYWGQGTQVTVSS | low polyreactivity
31 | QVQLVESGGGLVQAGGSLRLSCAASGRIFNHNTMGWYRQAPGKERELVAAISRSGASTYYADSVKGRFTISRDNAKNTVYLQMNSLKPEDTAVYYCNAATYADGITIYDYWGQGTQVTVSS | low polyreactivity
32 | QVQLVESGGGLVQAGGSLRLSCAASGRIFNIYAMGWYRQAPGKERELVAAISVSGTRTYYADSVKGRFTISRDNAKNTVYLQMNSLKPEDTAVYYCAADSYGGVWTEHMYYWGQGTQVTVSS | low polyreactivity
33 | QVQLVESGGGLVQAGGSLRLSCAASGRIFNLYDMGWYRQAPGKERELVAAIRIGDRTYYADSVKGRFTISRDNEKNTVYLQMNSLKQEDTAVYYCNREYLSNRDKRFFYWGQGTQVTVSS | low polyreactivity
34 | QVQLVESGGGLVQAGGSLRLSCAASGRIFNPNVMGWYRQAPGKERELVAAISWSGDTTYYADSVKWRFTISRDNAKNTVYLQMNSLKPEDTEVYYCATESDGYAYENYEYWGQGTQVTVSS | high polyreactivity
35 | QVQLVESGGGLVQAGGSLRLSCAASGRIFNRNAMGWYRQAPGKERELVAAISSDTSTNYADSVKGRFTISRDNAKNTVYLQMNSLKPEDTAVYYCAADVRRYDGYDYWGQGTQVTVSS | low polyreactivity
36 | QVQLVESGGGLVQAGGSLRLSCAASGRIFNRYAMGWYRQAPGKERELVAAISRGGGTNYADSVKGRFTISRDNAKNTVYLQMNSLKPEDTAVYYCAAARGHNVETSTTYDRGDYWGQGTQVTVSS | low polyreactivity
37 | QVQLVESGGGLVQAGGSLRLSCAASGRIFNRYAMGWYRQAPGKERELVAAITSGGDTNYADSVKGRFTISRDNAKNTVYLQMNSLKPEDTAVYYCNARSRGRASGYDYWGQGTQVTVSS | high polyreactivity
38 | QVQLVESGGGLVQAGGSLRLSCAASGRIFNRYAMGWYRQAPGKERELVAAITSGGDTNYADSVKGRFTISRDNAKNTVYLQMNSLKPEETAVYYCAAYLYPWYSRYYYWGQGTQVTVSS | high polyreactivity
39 | QVQLVESGGGLVQAGGSLRLSCAASGRIFNRYAMGWYRQAPGKERELVAAITTSADSTYADSVKGRFTISRDNAKNTVYLQMNSLKPEDTAVYYCNVASRQGSTYDYWGQGTQVTVSS | high polyreactivity
40 | QVQLVESGGGLVQAGGSLRLSCAASGRIFNTYAMGWFRQAPGKERELVAAITRSAGRTYYADSVKGRFTISRDTAKNTVYLQMNSLKPEDTAVYYCAAQYNYGQRSGPYGYWGQGTQVTVSS | low polyreactivity
41 | QVQLVESGGGLVQAGGSLRLSCAASGRIFNVYAMGWYRQAPGKERELVAAIRRRGDRTYYADSVKGRFTISRDNAKNTVYLQMNSLKPEDTAVYYCAKSQSAKGGYDYWGQGTQVTVSS | high polyreactivity
42 | QVQLVESGGGLVQAGGSLRLSCAASGRIFNWYAMGWYRQAPGKERELVARISSGDITSYADSVKGRFTISRDNAKNTVYLQMNSLKPEDTAVYYCAARQWFLYDYWGHGTQVTVSS | low polyreactivity
43 | QVQLVESGGGLVQAGGSLRLSCAASGRIFNYNAMGWYRQAPGKERELVAAITSSGDSTNYADSVKGRFTISRDNAKNTVYLQMNSLKPEDTAVYYCNASSPYDYDWGQGTQVTVSS | low polyreactivity
